Laboratory results: patent publication US20240100152A1 (UNIVERSITY OF PITTSBURGH OF THE COMMONWEALTH SYSTEM OF …, published 2024)

Target: T1, human α7 nicotinic acetylcholine receptor (α7nAChR) expressed on HEK293T/17 cells (human, UniProt P36544 23-502)
T1 construct: whole, on cells
Assay: live-cell fluorescent labeling of transfected HEK293 cells

T1 sequence (P36544 23-502): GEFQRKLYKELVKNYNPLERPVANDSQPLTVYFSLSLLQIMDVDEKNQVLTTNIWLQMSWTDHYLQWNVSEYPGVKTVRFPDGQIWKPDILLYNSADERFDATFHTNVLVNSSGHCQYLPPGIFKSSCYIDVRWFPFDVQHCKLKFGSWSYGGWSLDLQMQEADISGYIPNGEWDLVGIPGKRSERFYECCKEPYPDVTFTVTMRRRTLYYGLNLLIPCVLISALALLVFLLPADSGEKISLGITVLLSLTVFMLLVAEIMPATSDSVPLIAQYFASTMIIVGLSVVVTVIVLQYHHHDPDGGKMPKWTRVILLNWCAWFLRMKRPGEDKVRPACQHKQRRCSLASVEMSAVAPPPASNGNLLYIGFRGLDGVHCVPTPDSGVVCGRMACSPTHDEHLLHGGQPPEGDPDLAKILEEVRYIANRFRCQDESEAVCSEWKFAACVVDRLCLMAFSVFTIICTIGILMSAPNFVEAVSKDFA

B1: α-bungarotoxin Alexa Fluor 594 conjugate (ligand)
chain: IVCHTTATSPISAVTCPPGENLCYRKMWCDAFCSSRGKVVELGCAATCPSKKPYEEVTCCSTDKCNPHPKQRPG
binding result: binds
